Tests used:
[1] = target: human MSLN full-length protein (NCBI: AAH09272.1) on stably transfected CHO-K1 or HEK293T cells (human) (UniProt Q13421); experiment: FACS on CHO-K1-hMSLN-2C8 cells; antibody 0.00128 nM
[2] = target: human MSLN full-length protein (NCBI: AAH09272.1) on stably transfected CHO-K1 or HEK293T cells (human) (UniProt Q13421); experiment: FACS on CHO-K1-hMSLN-2C8 cells; antibody 0.032 nM
[3] = target: human MSLN full-length protein (NCBI: AAH09272.1) on stably transfected CHO-K1 or HEK293T cells (human) (UniProt Q13421); experiment: FACS on CHO-K1-hMSLN-2C8 cells; antibody 20 nM
[4] = target: human MSLN full-length protein (NCBI: AAH09272.1) on stably transfected CHO-K1 or HEK293T cells (human) (UniProt Q13421); experiment: FACS on HEK293T-hMSLN-2A4 cells; secondary antibody control 1
[5] = target: monkey MSLN full-length protein (NCBI: XP_028696439.1) on HEK293T cells (monkey); experiment: FACS on HEK293T-monkey MSLN cells; antibody 4 nM
[6] = target: human MSLN full-length protein (NCBI: AAH09272.1) on stably transfected CHO-K1 or HEK293T cells (human) (UniProt Q13421); experiment: FACS on HEK293T-hMSLN-2A7 cells; secondary antibody control 1
[7] = target: monkey MSLN full-length protein (NCBI: XP_028696439.1) on HEK293T cells (monkey); experiment: FACS on HEK293T-monkey MSLN cells; antibody 0.00128 nM
[8] = target: monkey MSLN full-length protein (NCBI: XP_028696439.1) on HEK293T cells (monkey); experiment: FACS on HEK293T-monkey MSLN cells; antibody 20 nM
[9] = target: human MSLN full-length protein (NCBI: AAH09272.1) on stably transfected CHO-K1 or HEK293T cells (human) (UniProt Q13421); experiment: FACS on HEK293T-hMSLN-B8 cells; secondary antibody control 1
[10] = target: human MSLN full-length protein (NCBI: AAH09272.1) on stably transfected CHO-K1 or HEK293T cells (human) (UniProt Q13421); experiment: FACS on CHO-K1-hMSLN-2C8 cells; antibody 4 nM
[11] = target: human MSLN full-length protein (NCBI: AAH09272.1) on stably transfected CHO-K1 or HEK293T cells (human) (UniProt Q13421); experiment: FACS on CHO-K1-hMSLN clone 2C8, overlay with secondary antibody only
[12] = target: human MSLN full-length protein (NCBI: AAH09272.1) on stably transfected CHO-K1 or HEK293T cells (human) (UniProt Q13421); experiment: FACS on CHO-K1-hMSLN-2C8 cells; secondary antibody control 37
[13] = target: human MSLN full-length protein (NCBI: AAH09272.1) on stably transfected CHO-K1 or HEK293T cells (human) (UniProt Q13421); experiment: FACS on CHO-K1-hMSLN-2C8 cells; antibody […]
[14] = target: human MSLN full-length protein (NCBI: AAH09272.1) on stably transfected CHO-K1 or HEK293T cells (human) (UniProt Q13421); experiment: FACS on CHO-K1-hMSLN clone 2D11, overlay with secondary antibody only
[15] = target: human MSLN full-length protein (NCBI: AAH09272.1) on stably transfected CHO-K1 or HEK293T cells (human) (UniProt Q13421); experiment: FACS on CHO-K1-hMSLN-2C5 cells; secondary antibody control 37
[16] = target: human MSLN full-length protein (NCBI: AAH09272.1) on stably transfected CHO-K1 or HEK293T cells (human) (UniProt Q13421); experiment: FACS on CHO-K1-hMSLN-2C8 cells; antibody 0.0064 nM
[17] = target: monkey MSLN full-length protein (NCBI: XP_028696439.1) on HEK293T cells (monkey); experiment: FACS on HEK293T-monkey MSLN cells; antibody 100 nM
[18] = target: human MSLN full-length protein (NCBI: AAH09272.1) on stably transfected CHO-K1 or HEK293T cells (human) (UniProt Q13421); experiment: FACS on CHO-K1-hMSLN-2D11 cells; secondary antibody control 37
[19] = target: monkey MSLN full-length protein (NCBI: XP_028696439.1) on HEK293T cells (monkey); experiment: FACS on HEK293T-monkey MSLN cells; antibody […]
[20] = target: human MSLN full-length protein (NCBI: AAH09272.1) on stably transfected CHO-K1 or HEK293T cells (human) (UniProt Q13421); experiment: FACS on CHO-K1-hMSLN-2C8 cells; antibody 100 nM
[21] = target: monkey MSLN full-length protein (NCBI: XP_028696439.1) on HEK293T cells (monkey); experiment: FACS on HEK293T-monkey MSLN cells; antibody 0.0064 nM
[22] = target: monkey MSLN full-length protein (NCBI: XP_028696439.1) on HEK293T cells (monkey); experiment: FACS on HEK293T-monkey MSLN cells; antibody 0.8 nM
[23] = target: monkey MSLN full-length protein (NCBI: XP_028696439.1) on HEK293T cells (monkey); experiment: FACS on HEK293T-monkey MSLN cells; antibody 0.032 nM
[24] = target: human MSLN full-length protein (NCBI: AAH09272.1) on stably transfected CHO-K1 or HEK293T cells (human) (UniProt Q13421); experiment: FACS on CHO-K1-hMSLN-2C8 cells; antibody 0.8 nM
[25] = target: human MSLN full-length protein (NCBI: AAH09272.1) on stably transfected CHO-K1 or HEK293T cells (human) (UniProt Q13421); experiment: FACS on CHO-K1-hMSLN clone 2C5, overlay with secondary antibody only

- FACS fluorescence intensity [1]: 75
- FACS fluorescence intensity [2]: 206
- FACS fluorescence intensity [3]: 15400
- Mean fluorescence intensity of cells [4]: 15400
- FACS fluorescence intensity [5]: 90
- Mean fluorescence intensity of cells [6]: 6580
- FACS fluorescence intensity [7]: 85
- FACS fluorescence intensity [8]: 100
- Mean fluorescence intensity of cells [9]: 24400
- FACS fluorescence intensity [10]: 9000
- percent of cells in the APC-A+ gate [11]: 99.4%
- Mean fluorescence intensity of cells [12]: 234000
- FACS fluorescence intensity [13]: 593
- percent of cells in the APC-A+ gate [14]: 100%
- Mean fluorescence intensity of cells [15]: 206000
- FACS fluorescence intensity [16]: 96
- FACS fluorescence intensity [17]: 126
- Mean fluorescence intensity of cells [18]: 218000
- FACS fluorescence intensity [19]: 86
- FACS fluorescence intensity [20]: 15300
- FACS fluorescence intensity [21]: 85
- FACS fluorescence intensity [22]: 88
- FACS fluorescence intensity [23]: 85
- FACS fluorescence intensity [24]: 2290
- percent of cells in the APC-A+ gate [25]: 100%
B1: Tab020 (YP223, rabbitIgG1) (antibody, V domains shown)
VH: QEQLEESGGDLVQPEGSLTLTCKASGLDFSSSYWICWVRQAPGKGLEWIGCRHTFTANTWSASWVNGRFTISRSTSLGTVDLKMTSLTAADTATYFCARDESNNDGWDFKLWGPGTLVTVSS
VL: AYDMTQTPASVSAAVGGTVTIKCQASQSISNYLAWYQQKPGQPPKLLIYQASTLAPGVSSRFKGSGSGTEFTLTISGVECADAATYYCQQGYTSSNVENVFGGGTGVVVGD

— US20250250357A1
